The values below come from paper PMC8580823.

In this assay the target is Full-length human Nf1-23a (neurofibromin isoform 2) (human) (UniProt P21359). The assay can be described thus: cryo-EM structure; single-particle cryo-EM of purified Nf1-23a at ~0.5 mg/ml in 20 mM Tris pH 8.0, 300 mM NaCl, 2 mM DTT, grids frozen at 4 °C; native sample and sample incubated 90 min with 50 µM ZnCl2; homodimer, no symmetry imposed (C1). Conditions: remark: other sources report otherwise.

Consider “Full-length human Nf1-23a (neurofibromin isoform 2), P21359 1-2839”, for which the stoichiometry N came out at 2.

As a reminder, the stoichiometry N is the number of molecules, sites or subunits per partner or assembly.
